From patent US12295987B2, “Method of using a GIP/GLP1 co-agonist for diabetes” (Eli Lilly and Company, priority 2018, dated 2025)

Biological target: T1, human gastric inhibitory peptide receptor (hGIPR) (Homo sapiens, UniProt P48546)
T1 construct: expressed in transfected cells; host or cells: HEK293
T1 sequence (P48546 22-466): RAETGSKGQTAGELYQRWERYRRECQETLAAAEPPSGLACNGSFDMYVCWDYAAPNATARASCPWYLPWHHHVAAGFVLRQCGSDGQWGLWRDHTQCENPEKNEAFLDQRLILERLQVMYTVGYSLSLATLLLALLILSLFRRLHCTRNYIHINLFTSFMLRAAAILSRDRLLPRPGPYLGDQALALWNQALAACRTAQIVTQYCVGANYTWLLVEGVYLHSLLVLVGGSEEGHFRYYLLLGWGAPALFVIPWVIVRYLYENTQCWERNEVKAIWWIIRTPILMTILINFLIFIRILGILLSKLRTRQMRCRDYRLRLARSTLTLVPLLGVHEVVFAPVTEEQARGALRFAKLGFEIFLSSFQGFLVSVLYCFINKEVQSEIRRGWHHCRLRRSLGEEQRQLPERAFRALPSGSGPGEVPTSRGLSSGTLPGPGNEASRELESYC
Assay: cAMP pharmacological functional assay in presence of 0.1% casein, hGIPR
Assay type: cell-based
Details: ratio of hGIPR to hGLP1R cAMP EC50 ratios

Substance	[hGIPR/hGLP1R] EC50 Ratio
Y-Aib-EGT-αMeF(2F)-TSD-4Pal-SI-αMeL-LDEK((2-[2-(2-Amino-ethoxy)-ethoxy]-acetyl)2-(γGlu)-CO—(CH2)16—CO2H)AQ-Aib-EFI-(D-Glu)-YLIEGGPSSGAPPPS-NH2 (YXEGTXTSDXSIXLDEKAQXEFIXYLIEGGPSSGAPPPS; Aib, αMeF(2F), 4Pal, αMeL, D-Glu; lipidated K; amide; (2)..(2) Xaa at position 2 is Aib; (6)..(6) Xaa at position 6 is alpha-methyl-Phe(2F); (10)..(10) Xaa at position 10 is 4Pal; (13)..(13) Xaa at position 13 is alpha-methyl-Leu; MOD_RES (17)..(17) Lys at position 17 is chemically modified by conjugation of the epsilon-amino group of the Lys side chain with (2-[2-(2-amino-ethoxy)-ethoxy]-acetyl)2-(gamma-Glu)-CO-(CH2)16- CO2H; (20)..(20) Xaa at posit) [Peptide 204]	6.65
Y-Aib-EGT-αMeF(2F)-TSDYSI-αMeL-LD-Dap-K((2-[2-(2-Amino-ethoxy)-ethoxy]-acetyl)2-(γGlu)-CO—(CH2)16—CO2H)AQ-Aib-EFI-(D-Glu)-YLIEGGPSSGAPPPS-NH2 (YXEGTXTSDYSIXLDXKAQXEFIXYLIEGGPSSGAPPPS; Aib, αMeF(2F), αMeL, Dap, D-Glu; lipidated K; amide; (2)..(2) Xaa at position 2 is Aib; (6)..(6) Xaa at position 6 is alpha-methyl-Phe(2F); (13)..(13) Xaa at position 13 is alpha-methyl-Leu; (16)..(16) Xaa at position 16 is Dap; MOD_RES (17)..(17) Lys at position 17 is chemically modified by conjugation of the epsilon-amino group of the Lys side chain with (2-[2-(2-amino-ethoxy)-ethoxy]-acetyl)2-(gamma-Glu)-CO-(CH2)16- CO2H; (20)..(20) Xaa at positi) [Peptide 210]	5.24
Y-Aib-EGT-αMeF(2F)-TSDYSI-αMeL-LDEK((2-[2-(2-Amino-ethoxy)-ethoxy]-acetyl)2-(γGlu)-CO—(CH2)18—CO2H)AQ-Aib-EFIVYLIEGGPSSGAPPPS-NH2 (YXEGTXTSDYSIXLDEKAQXEFIVYLIEGGPSSGAPPPS; Aib, αMeF(2F), αMeL; acylated lysine C20 diacid; amide; (2)..(2) Xaa at position 2 is Aib; (6)..(6) Xaa at position 6 is alpha-methyl-Phe(2F); (13)..(13) Xaa at position 13 is alpha-methyl-Leu; MOD_RES (17)..(17) Lys at position 17 is chemically modified by conjugation of the epsilon-amino group of the Lys side chain with (2-[2-(2-amino-ethoxy)-ethoxy]-acetyl)2-(gamma-Glu)-CO-(CH2)18- CO2H; (20)..(20) Xaa at position 20 is Aib; MOD_RES (39)..(39) Ser a) [Peptide 149]	3.76
Y-Aib-EGT-αMeF(2F)-TSDYSI-αMeL-LDEK((2-[2-(2-Amino-ethoxy)-ethoxy]-acetyl)2-(γGlu)-CO—(CH2)18—CO2H)AQ-Aib-EFIEYLIEGG-NH2 (YXEGTXTSDYSIXLDEKAQXEFIEYLIEGG; Aib, αMe residues, C20 diacid lipidation, C-amide; (2)..(2) Xaa at position 2 is Aib; (6)..(6) Xaa at position 6 is alpha-methyl-Phe(2F); (13)..(13) Xaa at position 13 is alpha-methyl-Leu; MOD_RES (17)..(17) Lys at position 17 is chemically modified by conjugation of the epsilon-amino group of the Lys side chain with (2-[2-(2-amino-ethoxy)-ethoxy]-acetyl)2-(gamma-Glu)-CO-(CH2)18- CO2H; (20)..(20) Xaa at position 20 is Aib; MOD_RES (30)..(30) Gly a) [Peptide 103]	3.07
Y-Aib-EGT-αMeF(2F)-TSDLSI-αMeL-LD-Orn-K((2-[2-(2-Amino-ethoxy)-ethoxy]-acetyl)2-(γGlu)-CO—(CH2)16—CO2H)AQ-Aib-EFI-(D-Glu)-αMeY-LIEGGPSSGAPPPS-NH2 (YXEGTXTSDLSIXLDXKAQXEFIXXLIEGGPSSGAPPPS; Aib, Orn, αMe residues, lipidated Lys, D-Glu, amide; (2)..(2) Xaa at position 2 is Aib; (6)..(6) Xaa at position 6 is alpha-methyl-Phe(2F); (13)..(13) Xaa at position 13 is alpha-methyl-Leu; (16)..(16) Xaa at position 16 is Orn; MOD_RES (17)..(17) Lys at position 17 is chemically modified by conjugation of the epsilon-amino group of the Lys side chain with (2-[2-(2-amino-ethoxy)-ethoxy]-acetyl)2-(gamma-Glu)-CO-(CH2)16- CO2H; (20)..(20) Xaa at positi) [Peptide 238]	6.37
Y-Aib-EGT-αMeF(2F)-TSDYSI-Aib-LDEK((2-[2-(2-Amino-ethoxy)-ethoxy]-acetyl)2-(γGlu)-CO—(CH2)18—CO2H)AQ-Aib-EFI-(D-Glu)-YLIEGGPSSGAPPPS-NH2 (YXEGTXTSDYSIXLDEKAQXEFIXYLIEGGPSSGAPPPS; Aib, αMeF(2F), D-Glu; lipidated K; amide; (2)..(2) Xaa at position 2 is Aib; (6)..(6) Xaa at position 6 is alpha-methyl-Phe(2F); (13)..(13) Xaa at position 13 is Aib; MOD_RES (17)..(17) Lys at position 17 is chemically modified by conjugation of the epsilon-amino group of the Lys side chain with (2-[2-(2-amino-ethoxy)-ethoxy]-acetyl)2-(gamma-Glu)-CO-(CH2)18- CO2H; (20)..(20) Xaa at position 20 is Aib; (24)..(24) Xaa at position 24 is D-Gl) [Peptide 224]	3.32
Y-Aib-EGT-αMeF-TSDYSI-αMeL-LDKK((2-[2-(2-Amino-ethoxy)-ethoxy]-acetyl)2-(γGlu)-CO—(CH2)18—CO2H)AQH-Aib-FIEYLIEGGPSSGAPPPS-NH2 (YXEGTXTSDYSIXLDKKAQHXFIEYLIEGGPSSGAPPPS; Aib, αMeF, αMeL; acylated lysine C20 diacid; amide; (2)..(2) Xaa at position 2 is Aib; (6)..(6) Xaa at position 6 is alpha-methyl-Phe; (13)..(13) Xaa at position 13 is alpha-methyl-Leu; MOD_RES (17)..(17) Lys at position 17 is chemically modified by conjugation of the epsilon-amino group of the Lys side chain with (2-[2-(2-amino-ethoxy)-ethoxy]-acetyl)2-(gamma-Glu)-CO-(CH2)18- CO2H; (21)..(21) Xaa at position 21 is Aib; MOD_RES (39)..(39) Ser at po) [Peptide 144]	4.23
Y-Aib-EGT-αMeF(2F)-TSDYSI-αMeL-LDEK((2-[2-(2-Amino-ethoxy)-ethoxy]-acetyl)2-(γGlu)-CO—(CH2)18—CO2H)AQ-Aib-EFIE-αMeY-LIEGGPSSGAPPPS-NH2 (YXEGTXTSDYSIXLDEKAQXEFIEXLIEGGPSSGAPPPS; Aib, αMeF(2F), αMeL, αMeY; lipidated K; amide; (2)..(2) Xaa at position 2 is Aib; (6)..(6) Xaa at position 6 is alpha-methyl-Phe(2F); (13)..(13) Xaa at position 13 is alpha-methyl-Leu; MOD_RES (17)..(17) Lys at position 17 is chemically modified by conjugation of the epsilon-amino group of the Lys side chain with (2-[2-(2-amino-ethoxy)-ethoxy]-acetyl)2-(gamma-Glu)-CO-(CH2)18- CO2H; (20)..(20) Xaa at position 20 is Aib; (25)..(25) Xaa at positi) [Peptide 223]	3.05
Y-Aib-EGT-αMeF(2F)-TSDHSI-αMeL-LDEK((2-[2-(2-Amino-ethoxy)-ethoxy]-acetyl)2-(γGlu)-CO—(CH2)14—CO2H)AQ-Aib-HFI-(D-Glu)-YLIEGGPSSGAPPPS-NH2 (YXEGTXTSDHSIXLDEKAQXHFIXYLIEGGPSSGAPPPS; Aib, αMeF(2F), αMeL, D-Glu; C16 diacid lipidated K; amide; (2)..(2) Xaa at position 2 is Aib; (6)..(6) Xaa at position 6 is alpha-methyl-Phe(2F); (13)..(13) Xaa at position 13 is alpha-methyl-Leu; MOD_RES (17)..(17) Lys at position 17 is chemically modified by conjugation of the epsilon-amino group of the Lys side chain with (2-[2-(2-amino-ethoxy)-ethoxy]-acetyl)2-(gamma-Glu)-CO-(CH2)14- CO2H; (20)..(20) Xaa at position 20 is Aib; (24)..(24) Xaa at positi) [Peptide 178]	9.77
